From the Human Domainome abundance scans (Beltran et al. 2025)
± gives the uncertainty stated by the source.

Assay: abundance fitness (aPCA) (normalised: wild type 0, dead -1); higher = more abundant; growth selection in yeast, the domain comes from the species named
Details: Homo sapiens

**Q.** For “BAG family molecular chaperone regulator 3 R19S, O95817”, which abundance fitness is on record?
**A.** The abundance fitness was -0.006 ± 0.062.

**Q.** For “BAG family molecular chaperone regulator 3 R19T, O95817”, which abundance fitness is on record?
**A.** Its abundance fitness is -0.169 ± 0.096.

**Q.** With “BAG family molecular chaperone regulator 3 R19V, O95817” as the substance, how does the abundance fitness read?
**A.** Its abundance fitness is -0.221 ± 0.073.

**Q.** For “BAG family molecular chaperone regulator 3 R19W, O95817”, which abundance fitness is on record?
**A.** The abundance fitness was -0.342 ± 0.073.

**Q.** Which abundance fitness does the source give for “BAG family molecular chaperone regulator 3 R19Y, O95817” here?
**A.** The abundance fitness was -0.27 ± 0.094.

**Q.** With “BAG family molecular chaperone regulator 3 R45C, O95817” as the substance, how does the abundance fitness read?
**A.** The abundance fitness was -0.165 ± 0.17.

**Q.** For “BAG family molecular chaperone regulator 3 R45D, O95817”, which abundance fitness is on record?
**A.** The abundance fitness was -0.557 ± 0.32.

**Q.** Which abundance fitness does the source give for “BAG family molecular chaperone regulator 3 R45E, O95817” here?
**A.** Its abundance fitness is -0.422 ± 0.2.

**Q.** For “BAG family molecular chaperone regulator 3 R45F, O95817”, which abundance fitness is on record?
**A.** The abundance fitness was -0.4 ± 0.087.

**Q.** For “BAG family molecular chaperone regulator 3 R45G, O95817”, which abundance fitness is on record?
**A.** Its abundance fitness is -0.087 ± 0.085.

**Q.** For “BAG family molecular chaperone regulator 3 R45H, O95817”, which abundance fitness is on record?
**A.** Its abundance fitness is 0.367 ± 0.25.

**Q.** For “BAG family molecular chaperone regulator 3 R45K, O95817”, which abundance fitness is on record?
**A.** Its abundance fitness is -0.043 ± 0.077.

**Q.** For “BAG family molecular chaperone regulator 3 R45L, O95817”, which abundance fitness is on record?
**A.** Its abundance fitness is -0.594 ± 0.18.

**Q.** For “BAG family molecular chaperone regulator 3 R45M, O95817”, which abundance fitness is on record?
**A.** Its abundance fitness is -0.442 ± 0.2.

**Q.** For “BAG family molecular chaperone regulator 3 R45N, O95817”, which abundance fitness is on record?
**A.** Its abundance fitness is 0.54 ± 0.18.

**Q.** Which abundance fitness does the source give for “BAG family molecular chaperone regulator 3 R45P, O95817” here?
**A.** Its abundance fitness is -0.321 ± 0.35.

**Q.** Which abundance fitness does the source give for “BAG family molecular chaperone regulator 3 R45Q, O95817” here?
**A.** The abundance fitness was 0.541 ± 0.17.

**Q.** With “BAG family molecular chaperone regulator 3 R45S, O95817” as the substance, how does the abundance fitness read?
**A.** Its abundance fitness is -0.354 ± 0.084.

**Q.** Which abundance fitness does the source give for “BAG family molecular chaperone regulator 3 R45T, O95817” here?
**A.** The abundance fitness was -0.409 ± 0.28.

**Q.** Which abundance fitness does the source give for “BAG family molecular chaperone regulator 3 R45V, O95817” here?
**A.** The abundance fitness was -0.692 ± 0.091.

**Q.** For “BAG family molecular chaperone regulator 3 R45W, O95817”, which abundance fitness is on record?
**A.** Its abundance fitness is -0.843 ± 0.18.

**Q.** Which abundance fitness does the source give for “BAG family molecular chaperone regulator 3 R45Y, O95817” here?
**A.** The abundance fitness was -0.229 ± 0.22.

**Q.** Which abundance fitness does the source give for “BAG family molecular chaperone regulator 3 R53A, O95817” here?
**A.** The abundance fitness was -0.422 ± 0.14.

**Q.** For “BAG family molecular chaperone regulator 3 R53C, O95817”, which abundance fitness is on record?
**A.** The abundance fitness was -0.551 ± 0.23.

**Q.** For “BAG family molecular chaperone regulator 3 R53D, O95817”, which abundance fitness is on record?
**A.** The abundance fitness was -0.822 ± 0.49.

**Q.** Which abundance fitness does the source give for “BAG family molecular chaperone regulator 3 R53E, O95817” here?
**A.** The abundance fitness was -0.646 ± 0.14.

**Q.** With “BAG family molecular chaperone regulator 3 R53G, O95817” as the substance, how does the abundance fitness read?
**A.** The abundance fitness was -0.295 ± 0.09.

**Q.** For “BAG family molecular chaperone regulator 3 R53H, O95817”, which abundance fitness is on record?
**A.** Its abundance fitness is -0.611 ± 0.3.

**Q.** For “BAG family molecular chaperone regulator 3 R53K, O95817”, which abundance fitness is on record?
**A.** The abundance fitness was -0.424 ± 0.28.

**Q.** With “BAG family molecular chaperone regulator 3 R53L, O95817” as the substance, how does the abundance fitness read?
**A.** Its abundance fitness is -0.732 ± 0.09.

**Q.** For “BAG family molecular chaperone regulator 3 R53M, O95817”, which abundance fitness is on record?
**A.** The abundance fitness was -0.296 ± 0.25.

**Q.** For “BAG family molecular chaperone regulator 3 R53N, O95817”, which abundance fitness is on record?
**A.** The abundance fitness was -0.257 ± 0.44.

**Q.** Which abundance fitness does the source give for “BAG family molecular chaperone regulator 3 R53P, O95817” here?
**A.** Its abundance fitness is -0.653 ± 0.083.

**Q.** Which abundance fitness does the source give for “BAG family molecular chaperone regulator 3 R53S, O95817” here?
**A.** Its abundance fitness is -0.523 ± 0.18.

**Q.** For “BAG family molecular chaperone regulator 3 R53T, O95817”, which abundance fitness is on record?
**A.** Its abundance fitness is -0.225 ± 0.25.

**Q.** With “BAG family molecular chaperone regulator 3 R53V, O95817” as the substance, how does the abundance fitness read?
**A.** Its abundance fitness is -0.715 ± 0.22.
